The text below walks through data of patent publication US20260216242A1, “ALPP-SPECIFIC VARIANT ANTIGEN BINDING MOLECULES” (ALMAC DISCOVERY LIMITED, priority 2022, published 2026).

In experiment [1] the target is T1, ALPP (Homo sapiens, UniProt P05187). In words: BLI binding kinetics, human ALPP immobilised on AR2G sensors (KD / KD apparent). The settings on record: VHH domains. On the procedure: (§1) Binding kinetics were determined using the Biolayer Interferometry (BLI) Octet K2 system (Sartorius). Human ALPP, ALPPL2, ALPL (each fused with a cysteine stabilised leucine zipper) and ALPI, (SEQ ID NO: 265, SEQ ID NO: 266 and SEQ ID NO: 267 and SEQ ID NO: 264 respectively) were immobilised in sodium acetate pH5 buffer to AR2G sensors using amine coupling. All assays were conducted in PBS with a plate temperature of 25° C. Ka (M^−1s^−1), Kd (s^−1) and KD (nM) values were determined using Octet Data Analysis High Throughput software (ForteBio) for Biolayer Interferometry.
(§2) Binding kinetics were determined using the Biolayer Interferometry (BLI) Octet K2 or R4 system (Sartorius). Human ALPP, ALPPL2 and ALPL all fused with a disulphide stabilised leucine zipper (SEQ ID NO: 265, SEQ ID NO: 266, and SEQ ID NO: 267) and ALPI His (SEQ ID NO: 264) were used in BLI experiments. For KD apparent measurements, the ALPP proteins were immobilised in sodium acetate pH5 buffer to AR2G sensors using amine coupling. To measure 1:1 interactions, AHC biosensors were used to immobilise Fc-fused proteins. All assays were conducted in HBS-EP with a plate temperature of 25° C. Ka (M^−1s^−1), Kd (s^−1) and KD (nM) values were determined using Octet Data Analysis High Throughput software (Sartorius) for Biolayer Interferometry.
as §2, with “NO:264)” for “NO: 264)”
In general terms: BLI is a label-free optical method that tracks binding on a fibre tip over time.

Experiment [2] addresses T2, ALPI His homodimer (Homo sapiens, UniProt P09923).
T2 sequence (P09923 with tags, fused parts or gaps): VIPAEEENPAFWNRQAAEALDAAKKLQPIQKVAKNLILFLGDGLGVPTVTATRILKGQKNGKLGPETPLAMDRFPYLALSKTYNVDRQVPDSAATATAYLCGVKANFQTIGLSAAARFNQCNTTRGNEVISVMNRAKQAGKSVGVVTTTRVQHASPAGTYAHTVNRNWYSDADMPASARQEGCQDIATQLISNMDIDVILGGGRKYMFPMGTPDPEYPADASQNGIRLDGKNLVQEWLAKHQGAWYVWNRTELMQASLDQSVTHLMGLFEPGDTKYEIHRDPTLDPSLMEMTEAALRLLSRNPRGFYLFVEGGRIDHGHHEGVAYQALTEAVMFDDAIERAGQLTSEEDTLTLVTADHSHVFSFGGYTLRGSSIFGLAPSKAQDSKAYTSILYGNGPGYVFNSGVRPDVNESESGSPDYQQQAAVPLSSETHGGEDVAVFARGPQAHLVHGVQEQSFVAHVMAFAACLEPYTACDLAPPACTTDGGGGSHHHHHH
As to the kind of experiment: ELISA binding to ALPI. The settings on record: 500 ng purified VHH. On the procedure: ELISA was used to test the binding and specificity of the VHHs. ALPP CysHis (SEQ ID NO: 263), ALPI His homodimer (SEQ ID NO: 264) or BSA (Thermo Fisher) were coated onto plates and 500 ng of each purified VHH added. Anti-Llama—HRP antibody was used for detection.
For orientation: In an ELISA, binding on a coated surface is turned into a signal by an enzyme label.

Experiment [3] has as its target Human ALPPL2 (Homo sapiens, UniProt P10696). As to the kind of experiment: BLI binding kinetics, human ALPPL2 immobilised on AR2G sensors (KD / KD apparent). The note with it: VHH domains. The protocol: as §1, §2
as §2, with “NO:264)” for “NO: 264)”

The target in experiment [4] is T1, ALPP. As to the kind of experiment: Epitope binning by BLI competition assay. The note with it: BLI competition on immobilised ALPP. The class given is binding. The protocol:
To determine epitope cross reactivity BLI competition assays were conducted. AR2G sensors were used and ALPP immobilised as above. ALPP sensors were then dipped into a well containing a saturating concentration of the initial binder for ten minutes to get an association curve. The sensor was then dipped into a well containing the same concentration of initial binder plus 20 nM of a secondary binding.
An increase in the association curve was indicative that the second VHH bound to a distinct epitope from the initial binder. Monomers with identical CDR3s were grouped as likely to be in the same epitope bin and only one from each group used in the epitope binning experiment.

T1 sequence (P05187 with tags, fused parts or gaps): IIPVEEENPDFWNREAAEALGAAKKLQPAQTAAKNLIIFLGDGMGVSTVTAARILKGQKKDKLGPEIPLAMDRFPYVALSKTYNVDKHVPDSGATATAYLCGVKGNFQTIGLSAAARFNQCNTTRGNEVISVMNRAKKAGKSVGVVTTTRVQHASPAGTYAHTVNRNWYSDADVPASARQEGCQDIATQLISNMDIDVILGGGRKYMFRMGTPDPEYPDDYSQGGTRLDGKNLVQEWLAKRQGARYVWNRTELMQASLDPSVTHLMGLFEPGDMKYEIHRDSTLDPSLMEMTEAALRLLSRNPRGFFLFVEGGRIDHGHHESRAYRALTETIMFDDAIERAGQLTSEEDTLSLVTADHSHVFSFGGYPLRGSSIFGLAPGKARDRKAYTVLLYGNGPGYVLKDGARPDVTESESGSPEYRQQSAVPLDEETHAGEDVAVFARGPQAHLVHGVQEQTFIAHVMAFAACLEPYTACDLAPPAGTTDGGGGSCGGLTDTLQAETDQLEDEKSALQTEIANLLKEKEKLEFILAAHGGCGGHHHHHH
Human ALPPL2, sequence (P10696 with tags, fused parts or gaps): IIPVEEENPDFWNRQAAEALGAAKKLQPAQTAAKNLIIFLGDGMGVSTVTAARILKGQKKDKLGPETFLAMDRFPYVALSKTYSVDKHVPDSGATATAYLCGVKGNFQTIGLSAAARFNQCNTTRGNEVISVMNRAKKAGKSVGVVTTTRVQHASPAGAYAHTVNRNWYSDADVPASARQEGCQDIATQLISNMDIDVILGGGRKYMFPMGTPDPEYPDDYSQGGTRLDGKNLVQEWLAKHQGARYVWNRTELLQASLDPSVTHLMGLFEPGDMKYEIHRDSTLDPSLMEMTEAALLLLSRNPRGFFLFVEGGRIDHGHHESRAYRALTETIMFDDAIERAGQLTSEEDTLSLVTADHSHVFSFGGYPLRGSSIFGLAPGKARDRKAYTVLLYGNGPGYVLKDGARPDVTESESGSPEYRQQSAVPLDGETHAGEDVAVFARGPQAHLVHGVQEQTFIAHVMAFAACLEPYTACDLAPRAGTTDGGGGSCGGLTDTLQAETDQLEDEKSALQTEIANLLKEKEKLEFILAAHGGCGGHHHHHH

B1: D10: ALPP targeting VHH domain, SEQ ID NO: 28 (protein)
VHH: QVQLVESGGGLVQPGGSLRLSCAASGSIFSVNTMGWYRQAPGKQRDLVAVATSGGTIHYADSVKGRFTISRDNAKNTVYLQMNSLKPEDTAVYYCNLVVPYGMIAGDHDYWGQGTKVTVSS
Turning to B1, in experiment [1], the “hALPP Ka” value came to 67300 M⁻¹ s⁻¹ and the “hALPP Kd” value was determined as 0.000013 s⁻¹. Further, the “ELISA hALPI” value in experiment [2] was “No Binding”. Moreover, in experiment [3], the “hALPPL2 Ka” value was 2300000 M⁻¹ s⁻¹ and the “hALPPL2 Kd” value worked out at 0.0028 s⁻¹. Also, the epitope bin result in experiment [4] is recorded as “five”.

B2: B01: ALPP/ALPPL2 targeting VHH domain, SEQ ID NO: 20 (protein)
VHH: QVQLVESGGGLVQAGGSLRLSCEVTRSPMPIDTMAWYRQAPGRQRELVAIISRSGSTNYADSVKGRFTISRNDTKSTMYKSTMYLKMNTLELEDTGVYYCNAVGLWNGAEYWGQGTQVTVSS
Take B2: in experiment [1], the “hALPP Ka” value was 162000 M⁻¹ s⁻¹ and the “hALPP Kd” value was 0.000191 s⁻¹. In experiment [2], the “ELISA hALPI” value is given as “No Binding”. Further, in experiment [3], the “hALPPL2 Ka” value is 482000 M⁻¹ s⁻¹ and the “hALPPL2 Kd” value was 0.00014 s⁻¹. Further, the epitope bin entry in experiment [4] is recorded as “three”.

B3: E10: ALPP/ALPPL2 targeting VHH domain, SEQ ID NO: 31 (protein)
VHH: QVQLVESGGGLVQAGGSLRLSCAVSGRALSDYNIGWFRQAPGKEREFVARKTWDGSSTRYDDSVKGRFTVSIEDAKNTAYLQMSSLKTEDTAVYYCAAGRYSRARGWEYDYWGQGTQVTVSS
As to B3, in experiment [1], the “hALPP Ka” value was 54200 M⁻¹ s⁻¹ and the “hALPP Kd” value was <1e-07 s⁻¹. Besides, the “ELISA hALPI” value in experiment [2] is on record as “No Binding”. For the same molecule, in experiment [3], the “hALPPL2 Ka” value was found to be 1640000 M⁻¹ s⁻¹ and the “hALPPL2 Kd” value amounted to 0.000141 s⁻¹. Further, the epitope bin result in experiment [4] was “one”.

B4: F05: ALPP/ALPPL2 targeting VHH domain, SEQ ID NO: 34 (protein)
VHH: QVQLVESGGGLVQAGGSLRLSCAASGRAFGDYNIGWFRQAPGKEREFVARRTWDGSSTRYDDSVKGRFTVSIDNAKNTAYLQMNSLKTEDTAVYYCAAGRYSRVRGWEYDYWGQGTQVTVSS
Take B4: in experiment [1], the “hALPP Ka” value is 13900 M⁻¹ s⁻¹ and the “hALPP Kd” value is <1e-07 s⁻¹. Further, in experiment [2], the “ELISA hALPI” value is reported as “No Binding”. In addition, in experiment [3], the “hALPPL2 Ka” value was found to be 3740000 M⁻¹ s⁻¹ and the “hALPPL2 Kd” value was 0.000356 s⁻¹. Also, in experiment [4], the epitope bin result is recorded as “one”.

B5: C07: ALPP/ALPPL2 targeting VHH domain, SEQ ID NO: 25 (protein)
VHH: QVQLVESGGGLVQAGESLRLACAASGTIFSGNAVGWYRQAPEKQREWVSSITDYGDTDYAEAVKGRFTISRDNAKNTVYLQMNSLKPEDTAVYYCYVYQRGESEEYWGQGTQVTVSS
Take B5: in experiment [1], the “hALPP Ka” value was 129000 M⁻¹ s⁻¹ and the “hALPP Kd” value was found to be 0.000028 s⁻¹. Further, the “ELISA hALPI” value in experiment [2] is recorded as “No Binding”. In experiment [3], the “hALPPL2 Ka” value was 471000 M⁻¹ s⁻¹ and the “hALPPL2 Kd” value was determined as 0.000288 s⁻¹. For the same molecule, in experiment [4], the epitope bin result is “four”.

B6: F08: ALPP/ALPPL2 targeting VHH domain, SEQ ID NO: 35 (protein)
VHH: QVQLVESGGGSVQAGGSLRLSCAASGPSLSNYAMGWFRQAPGKEREFVAGISWGGGRTSYTDSVKGRFTISRDNAKNTVYLQMNNLKPEDTGVYYCAGRYGRGRNVEYEYDYWGQGTQVTVSS
On to B6, for which, in experiment [1], the “hALPP Ka” value was 252000 M⁻¹ s⁻¹ and the “hALPP Kd” value was <1e-07 s⁻¹. In addition, the “ELISA hALPI” value in experiment [2] is on record as “No Binding”. Also, in experiment [3], the “hALPPL2 Ka” value turned out to be 684000 M⁻¹ s⁻¹ and the “hALPPL2 Kd” value was <1e-07 s⁻¹. Moreover, the epitope bin entry in experiment [4] is given as “one”.

B7: E06: ALPP/ALPPL2 targeting VHH domain, SEQ ID NO: 30 (protein)
VHH: QVHLVESGGGLVQAGGSLRLSCAASRRSFSEYAMGWFRQAPGKEREFVAAIGWSGVIEYADSVKGRFTISRDNAKDTVYLQMNSLKPEDTAVYYCAAGLGIRVVSQTPAYWGQGTQVTVSS
Regarding B7, in experiment [1], the “hALPP Ka” value turned out to be 106000 M⁻¹ s⁻¹ and the “hALPP Kd” value was <1e-07 s⁻¹. Also, the “ELISA hALPI” value in experiment [2] was “No Binding”. Further, in experiment [3], the “hALPPL2 Ka” value came to 1050000 M⁻¹ s⁻¹ and the “hALPPL2 Kd” value was found to be 0.0000875 s⁻¹. Moreover, in experiment [4], the epitope bin entry is “one”.

B8: A05: ALPP/ALPPL2 targeting VHH domain, SEQ ID NO: 16; tested C-terminally His-tagged (protein)
VHH: QVQLVESGGGLVQAGASLTLSCAASGFTFNTRSIVWFRQAPGKEREAVSCISKVAGSTYYGDSVQGRFSSSTDNAKNTVSLQMNSLKPEDTAVYTCAASFAPNCYGWSVAANMEYWGEGTMVTVSS
modifications: C-terminal His tag
notes: tested C-terminally His-tagged
As for B8, in experiment [1], the “hALPP Ka” value was found to be 260000 M⁻¹ s⁻¹ and the “hALPP Kd” value is <1e-07 s⁻¹. In addition, in experiment [2], the “ELISA hALPI” value is recorded as “No Binding”. Besides, the epitope bin result in experiment [4] is recorded as “one”.

B9: A06: ALPP/ALPPL2 targeting VHH domain, SEQ ID NO: 17; tested C-terminally His-tagged (protein)
VHH: QVHLVESGGGLVQAGGSLRLSCAASGRTFLSMGWFRQAPGKEREFVAAISWTGGSTGYADSVKGRFTISRESDKETMYLQMNSLKPEDTAVYYCAARGDVYYGGDDATRYKYWGQGTQVTVSS
modifications: C-terminal His tag
notes: as for B8
Consider B9, for which, in experiment [1], the “hALPP Ka” value was determined as 117000 M⁻¹ s⁻¹ and the “hALPP Kd” value amounted to 0.000154 s⁻¹. Further, in experiment [2], the “ELISA hALPI” value is recorded as “No Binding”. Also, in experiment [3], the “hALPPL2 Ka” value turned out to be 133000 M⁻¹ s⁻¹ and the “hALPPL2 Kd” value came to 0.000672 s⁻¹. Further, the epitope bin result in experiment [4] is reported as “two”.

B10: D04: ALPP/ALPPL2 targeting VHH domain, SEQ ID NO: 26 (protein)
VHH: QVQLVESGGGLVQPGGSLRLSCAASESTFSINVMGWYRQAPGKQRELVATITSGDITNYADSVKGRFTISRDNAENTVYLRTNSLKPEDTAVYYCNARGEYHSGNEYDYWGQGTQVTVSS
B10: in experiment [1], the “hALPP Ka” value came to 85100 M⁻¹ s⁻¹ and the “hALPP Kd” value is <1e-07 s⁻¹. Also, in experiment [2], the “ELISA hALPI” value is “No Binding”. Also, in experiment [3], the “hALPPL2 Ka” value was 754000 M⁻¹ s⁻¹ and the “hALPPL2 Kd” value is 0.00022 s⁻¹. In experiment [4], the epitope bin entry is on record as “four”.
